Laboratory results from patent publication US20160090422A1 (Genentech, published 2016).
Where a chain is given by its changes, count along the chain named. One block for each binder: values may come before it.

How the values were obtained:
rhesus monkey CRTh2 [1] = target: T1, rhesus monkey CRTh2 (rhesus monkey, UniProt Q9Y5Y4 1-395 (human entry)); test: flow cytometry, 293 cells expressing rhesus CRTh2 [Cont.]
T1 construct: also native on primary rhesus basophils and eosinophils; also called rhesus CRTh2
T1 chain: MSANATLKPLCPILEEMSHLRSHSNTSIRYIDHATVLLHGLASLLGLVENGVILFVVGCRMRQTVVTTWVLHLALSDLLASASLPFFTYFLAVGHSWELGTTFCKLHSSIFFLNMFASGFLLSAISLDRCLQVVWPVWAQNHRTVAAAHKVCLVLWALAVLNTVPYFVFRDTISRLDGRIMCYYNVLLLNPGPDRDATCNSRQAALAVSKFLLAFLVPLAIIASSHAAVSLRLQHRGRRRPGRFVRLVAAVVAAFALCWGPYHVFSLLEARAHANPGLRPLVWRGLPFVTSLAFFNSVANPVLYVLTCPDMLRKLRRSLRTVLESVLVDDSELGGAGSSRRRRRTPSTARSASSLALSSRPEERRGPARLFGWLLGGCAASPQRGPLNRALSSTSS

cynomolgus monkey CRTh2 [2] = target: T2, cynomolgus monkey CRTh2 (cynomolgus monkey, UniProt Q9Y5Y4 1-395 (human entry)); test: flow cytometry, 293 cells expressing cynomolgus CRTh2 [Cont.]
T2 construct: also native on primary cyno basophils and eosinophils; also called cyno CRTh2; cynomologous CRTh2
T2 chain: T1 chain with P193S, P276R, R360H

human CRTh2 [3] = target: T3, human CRTh2 (human, UniProt Q9Y5Y4 1-395); test: flow cytometry on basophils and eosinophils of human PBMC; antibody at 5 and 0.5 ug/ml, labelled anti-mouse IgG [Cont.]
T3 construct: also native CRTh2 on primary human basophils, eosinophils and Th2 cells; also called hCRTh2; chemoattractant receptor-homologous molecule expressed on T helper 2 cells
T3 sequence: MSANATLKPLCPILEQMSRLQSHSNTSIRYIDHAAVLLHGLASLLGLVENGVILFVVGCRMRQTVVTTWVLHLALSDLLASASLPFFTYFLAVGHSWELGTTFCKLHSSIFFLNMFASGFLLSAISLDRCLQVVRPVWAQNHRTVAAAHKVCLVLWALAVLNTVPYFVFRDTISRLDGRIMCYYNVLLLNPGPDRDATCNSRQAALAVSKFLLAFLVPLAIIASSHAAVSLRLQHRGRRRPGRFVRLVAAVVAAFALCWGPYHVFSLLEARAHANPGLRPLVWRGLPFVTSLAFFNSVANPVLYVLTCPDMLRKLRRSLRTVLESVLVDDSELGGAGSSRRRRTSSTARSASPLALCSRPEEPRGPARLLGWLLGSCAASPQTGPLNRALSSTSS

human CRTh2 [4] = target: T3, human CRTh2; test: radioligand cell binding assay with homologous competition (Scatchard), 293 cells expressing human CRTh2
Procedure: (§1) The equilibrium dissociation constants (KD) for anti-CRTH2 antibodies binding to cells expressing recombinant CRTh2 receptor were determined using a radioligand cell binding assay. […] The cells expressing the CRTh2 receptor were incubated for 2 hours at room temperature with a fixed concentration of iodinated anti-CRTh2 antibody combined with increasing concentrations of unlabeled anti-CRTh2 antibody and including a zero-added, buffer only sample. After the 2-hour incubation, the competition reactions were transferred to a Millipore Multiscreen filter plate and washed 4 times with binding buffer to separate the free from bound iodinated antibody. The filters were counted on a Wallac Wizard 1470 gamma counter. The binding data was evaluated using NewLigand software (Genentech), which uses the fitting algorithm of Munson and Rodbard to determine the binding affinity of the anti-CRTh2 antibody (Munson and Rodbard, Anal. Biochem, 1980; 107: 220-239).
(§2) To obtain a direct measurement of the KD value of humanized antibodies h19A2.v12 and h19A2.v60, Fab fragments of these antibodies were generated and subjected to radioligand cell binding assays (FIG. 4B).

rhesus monkey CRTh2 [5] = target: T1, rhesus monkey CRTh2; test: flow cytometry, 293 cells expressing amino-terminal gD-tagged rhesus CRTh2; antibody at 10, 1 and 0.1 ug/ml
cynomolgus monkey CRTh2 [6] = target: T2, cynomolgus monkey CRTh2; test: radioligand cell binding assay (Scatchard), Fab, 293 cells expressing cynomolgus monkey CRTh2
Procedure: After the 2-hour incubation, the competition reactions were transferred to a Millipore Multiscreen filter plate and washed 4 times with binding buffer to separate the free from bound iodinated antibody. The filters were counted on a Wallac Wizard 1470 gamma counter. The binding data was evaluated using NewLigand software (Genentech), which uses the fitting algorithm of Munson and Rodbard to determine the binding affinity of the anti-CRTh2 antibody (Munson and Rodbard, Anal. Biochem, 1980; 107: 220-239).
as §2
(§3) Radiolabeled ligand analysis with homologous competition was performed to assess the dissociation constant (KD) of anti-CRTh2 antibodies to surface expressed human and cynomolgus monkey CRTh2 on 293 cells. To obtain a direct measurement of the KD value of humanized antibodies h19A2.v52 and h19A2.v46, Fab fragments of these antibodies were generated (FIG. 16).

human CRTh2 [7] = target: T3, human CRTh2; test: radioligand cell binding assay (Scatchard), Fab, 293 cells expressing human CRTh2
Procedure: as §1, §2

cynomolgus monkey CRTh2 [8] = target: T2, cynomolgus monkey CRTh2; test: ratio of Scatchard KD values, cyno against human CRTh2 on 293 cells
Procedure: The filters were counted on a Wallac Wizard 1470 gamma counter. The binding data was evaluated using NewLigand software (Genentech), which uses the fitting algorithm of Munson and Rodbard to determine the binding affinity of the anti-CRTh2 antibody (Munson and Rodbard, Anal. Biochem, 1980; 107: 220-239).
as §2, §3

rhesus monkey CRTh2 [9] = target: T1, rhesus monkey CRTh2; test: flow cytometry, 293 cells expressing rhesus CRTh2; antibody at 0.55, 0.18, 0.06, 0.02 and 0.006 ug/ml [Cont.]
human CRTh2 [10] = target: T3, human CRTh2; test: flow cytometry, 293 cells expressing amino-terminal gD-tagged human CRTh2; antibody at 10, 1 and 0.1 ug/ml
human CRTh2 [11] = target: T3, human CRTh2; test: radioligand cell binding assay with homologous competition (Scatchard), 300.19 cells expressing human CRTh2
Procedure: as §1, §2

binding result (rhesus monkey CRTh2 [1]): no binding (tested: 20 ug/ml) | binding result (cynomolgus monkey CRTh2 [2]): no binding (tested: 20 ug/ml) | binding result (human CRTh2 [3]): binds
B1: murine anti-CRTh2 antibody 3C12 (antibody, mouse IgG2a, V domains shown)
VH: QVQLQQSGADLVRPGTSVKVSCKASGYAFTNYLIDWVKQRPGQGLEWIGAIHPGSGRTHYNEKFKGKATLTADKSSSAAYMQISSLTSDDSAVFFCARSGGSSFDYYAMDYWGQGTSVTVSS
VL: DIQMTQSPSSLSASLGERVSLTCRASQEIGGYLSWLQQKPDGTFKRLIYAASTLDSGVPKRFSGSRSGSDYSLTISSLESEDFADYYCLQYANYPYTFGGGTKLEIK
notes: Mouse monoclonal (hybridoma antibody; heavy chain also recloned with mouse IgG2a Fc); also called mu3C12

Kd (human CRTh2 [4]): 2.6 nM
B2: murine anti-CRTh2 antibody 8B1 (antibody, V domains shown)
VH: QVQLQQSGTGLVRPGTSVRVSCKASGYAFITYLIEWIKQRPGQGLEWIGVIHPGSGNSHYNEKFKGKATLTADTSSSTAYMQLSSLTSGDSAVYFCARSGSSSFDYYAMDFWGQGTSVTVSS
VL: B1 VL with G30S, L33F, F44I
notes: Mouse monoclonal, hybridoma antibody or recloned with mouse IgG2a Fc; whole IgG in the Scatchard assay; also called mu8B1; Mab 8B1

Kd (cynomolgus monkey CRTh2 [6]): 39 nM | Kd (human CRTh2 [7]): 56 nM
B9: h19A2.v60 Fab fragment (Fab, V domains shown)
VH: EVQLVESGGGLVQPGGSLRLSCAASGFTFSSYLMSWVRQAPGKGLEWVARISNGGSTTDYPGTVEGRFTISRDNSKNTLYLQMNSLRAEDTAVYYCARHRTNWDFDYWGQGTLVTVSS
VL: DIQMTQSPSSLSASVGDRVTITCRASENIYYNLAWYQQKPGKAPKLLIYAATQLAEGVPSRFSGSGSGTDYTLTISSLQPEDFATYYCQHFWITPWTFGQGTKVEIK
notes: Fab fragment of the humanized IgG; also called h19A2.v60 (Fab fragment of IgG)

Kd (cynomolgus monkey CRTh2 [6]): 21.3 nM | relative binding affinity for human versus cynomolgus CRTh2 (cynomolgus monkey CRTh2 [8]): ≤ 2 fold | Kd (human CRTh2 [7]): 13.7 nM
B10: h19A2.v52 Fab fragment (Fab, V domains shown)
VH: B9 VH
VL: B9 VL with L47V, I48V, E56D
notes: Fab fragment of the humanized IgG; also called h19A2.v52 (Fab fragment of IgG); h19A2.52

binding result (rhesus monkey CRTh2 [1]): no binding (tested: 20 ug/ml) | binding result (cynomolgus monkey CRTh2 [2]): no binding (tested: 20 ug/ml)
B11: murine anti-CRTh2 antibody 31A5 (antibody, mouse IgG2a, V domains shown)
VH: QVQLKESGPGLVAPSQSLSITCTVSGFSLTGYGVNWVRQPPGKGLEWLGMIWDDGTTDFDSALRSRLSISKDNSKSQVFLKMNSLQTDDTARYFCARGDYGYAMDYWGQGTSVTVSS
VL: DIQMTQSPASLSVSVGETVTITCRASVNIYSNLAWYQQRQGKSPQLLVYAATNLAEGVPSRFSGSGSGTQYSLKINSLQSEDFGSYYCQHFWVTPYTFGGGTKLEIK
notes: Mouse monoclonal (hybridoma antibody; heavy chain also recloned with mouse IgG2a Fc); also called mu31A5

Kd (human CRTh2 [11]): 10.2 nM | Kd (human CRTh2 [4]): 2 nM
B12: murine anti-CRTh2 antibody 19A2 (antibody, V domains shown)
VH: EVKLVESGGGLVQPGGSLKLSCAASGFTFSSYSMSWVRQTPEKRLEWVAYISNGGSTTYYPGTVEGRFTISRDNAKNTLFLQMSSLRSKDTAMYYCARHRTNWDFDYWGQGTTLTVSS
VL: B11 VL with V27E, R39K, L47V, N53Q, E56D, V93I, Y96W
notes: whole IgG in the Scatchard assay; also called mu19A2; Mab 19A2

Further lines, the binder ahead of its results:

B3: humanized and engineered anti-CRTh2 antibody hu19A2.v12 (antibody, human IgG1, kappa, V domains shown)
VH: B9 VH with L33S, R50Y
VL: DIQMTQSPSSLSASVGDRVTITCRASENIYWNLAWYQQKPGKAPKLVVYAATQLADGVPSRFSGSGSGTDYTLTISSLQPEDFATYYCQHFWITPWTFGQGTKVEIKR
notes: Human IgG1; whole antibody as used in flow cytometry; also called h19A2.v12
binding result (rhesus monkey CRTh2 [5]): binds

B4: h19A2.v46 Fab fragment (Fab, V domains shown)
VH: B9 VH
VL: B9 VL with Y31W, L47V, I48V, E56D
notes: Fab fragment of the humanized IgG; also called h19A2.v46 (Fab fragment of IgG)
Kd (cynomolgus monkey CRTh2 [6]): 8.6 nM | Kd (human CRTh2 [7]): 6.4 nM

B5: h19A2.v12 Fab fragment (Fab, V domains shown)
VH: B9 VH with L33S, R50Y
VL: B9 VL with Y31W, L47V, I48V, E56D
notes: Fab fragment of the humanized IgG, 125I-labelled in the radioligand assay; also called h19A2.v12 (Fab fragment of IgG); h19A2.12
Kd (cynomolgus monkey CRTh2 [6]): 152 nM | relative binding affinity for human versus cyno CRTh2 (cynomolgus monkey CRTh2 [8]): ≤ 3 fold | Kd (human CRTh2 [7]): 51 nM

B6: humanized affinity matured anti-CRTh2 antibody hu19A2.v46 (antibody, human IgG1, kappa, V domains shown)
VH: B9 VH
VL: B3 VL
notes: Human IgG1; whole antibody as used in flow cytometry; also called h19A2.v46
binding result (rhesus monkey CRTh2 [9]): binds

B7: humanized affinity matured anti-CRTh2 antibody hu19A2.v52 (antibody, human IgG1, kappa, V domains shown)
VH: B9 VH
VL: B3 VL with W31Y
notes: Human IgG1; whole antibody as used in flow cytometry and the cAMP assay; also called h19A2.v52; h19A2.52
binding result (rhesus monkey CRTh2 [9]): binds

B8: humanized anti-CRTh2 antibody hu19A2.v1 (antibody, human IgG1, kappa, V domains shown)
VH: B9 VH with L33S, R50Y, D59Y
VL: B3 VL with W31S
notes: also called h19A2.v1
binding result (human CRTh2 [10]): binds
